# Results from the supplement of paper PMC10201428.
# ± gives the standard deviation of the averaged measurements.
# Assays:
# [1] = test system: VchCAST RNA-guided transposition machinery (E. coli BL21(DE3) host, lacZ target); assay: relative integration efficiency (T-LR orientation) vs wild-type transposon end (log2 (normalized fold change)); transposon end mutated: right end (5 bp flank + 75 bp right end); higher = more efficient transposition
# Outline: (§1)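 In E. coli BL21(DE3), a T7-driven effector plasmid was paired with a pUC57 mini-transposon donor containing 1549 left-end or 1849 right-end barcoded transposon variants. Cells grew on plates with 0.1 mM IPTG at 37°C for 18 h. Relative integration efficiency was derived from Illumina reads of genomic integration junctions against input plasmids, as a log-transformed output/input barcode fold change normalised to reference barcodes.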
# [2] = test system: VchCAST RNA-guided transposition machinery (E. coli BL21(DE3) host, lacZ target); assay: relative integration efficiency (T-RL orientation) vs wild-type transposon end (log2 (normalized fold change)); transposon end mutated: right end (5 bp flank + 75 bp right end); higher = more efficient transposition
# Outline: as §1
Sequence,relative integration efficiency (log2) [1],relative integration efficiency (log2) [2]
ACATTTGTTAAAAAAACCATACGTTGATTTTACGAAACCATACGCTGAAATAATCACACCCATAAATTGATATTGCCTCTGATCATAGTCAGACCAACATTGCTACGACCCGTATTCGCACCGACAC,-5.9 ± 0.37,-5.94 ± 0.086
ACATTTGTTCATACAACCATAAAACGATAATTACACCCATAAATGGATAATTATCACACCCAATTTAACTATAACGCTCTGATCATAGTCAGACCAACATTGCTACGACCCGTATTCGCACCGACAC,-0.438 ± 0.41,-2.14 ± 0.3
ACATTTGTTCATACAACCATAAAACGATAATTACACCCATAAATGGATCATTATCACACCCAATTTAACTATAACGCTCTGATCATAGTCAGACCAACATTGCTACGACCCGTATTCGCACCGACAC,-0.511 ± 0.011,-2.16 ± 0.3
ACATTTGTTCATACAACCATAAAACGATAATTACACCCATAAATTCATAATTATCACACCCAATTTAACTATAACGCTCTGATCATAGTCAGACCAACATTGCTACGACCCGTATTCGCACCGACAC,-0.844 ± 0.015,-3 ± 0.52
ACATTTGTTCATACAACCATAAAACGATAATTACACCCATAAATTCATCATTATCACACCCAATTTAACTATAACGCTCTGATCATAGTCAGACCAACATTGCTACGACCCGTATTCGCACCGACAC,-0.684 ± 0.17,-2.49 ± 0.11
ACATTTGTTCATACAACCATAAAACGATAATTACACCCATAAATTGATAATTATCACACCCAATTTAACTATAACGCTCTGATCATAGTCAGACCAACATTGCTACGACCCGTATTCGCACCGACAC,1.42 ± 0.13,-0.611 ± 0.28
ACATTTGTTCATACAACCATAAAACGATAATTACACCCATAAATTGATCATTATCACACCCAATTTAACTATAACGCTCTGATCATAGTCAGACCAACATTGCTACGACCCGTATTCGCACCGACAC,-0.162 ± 0.59,-2.19 ± 0.3
ACATTTGTTCATACAACCATAAAATGATAATTACACCCATAAATGGATAATTATCACACCCAATTTAACTATAACGCTCTGATCATAGTCAGACCAACATTGCTACGACCCGTATTCGCACCGACAC,-0.42 ± 0.41,-1.57 ± 0.27
ACATTTGTTCATACAACCATAAAATGATAATTACACCCATAAATGGATAATTATCACCCCCAATTTAACTATAACGCTCTGATCATAGTCAGACCAACATTGCTACGACCCGTATTCGCACCGACAC,0.23 ± 0.071,-1 ± 0.35
ACATTTGTTCATACAACCATAAAATGATAATTACACCCATAAATGGATCATTATCACACCCAATTTAACTATAACGCTCTGATCATAGTCAGACCAACATTGCTACGACCCGTATTCGCACCGACAC,-0.503 ± 0.054,-1.79 ± 0.18
ACATTTGTTCATACAACCATAAAATGATAATTACACCCATAAATGGATCATTATCACCCCCAATTTAACTATAACGCTCTGATCATAGTCAGACCAACATTGCTACGACCCGTATTCGCACCGACAC,-0.469 ± 0.18,-1.84 ± 0.28
ACATTTGTTCATACAACCATAAAATGATAATTACACCCATAAATTCATAATTATCACACCCAATTTAACTATAACGCTCTGATCATAGTCAGACCAACATTGCTACGACCCGTATTCGCACCGACAC,-0.697 ± 0.075,-2.52 ± 0.32
ACATTTGTTCATACAACCATAAAATGATAATTACACCCATAAATTCATAATTATCACCCCCAATTTAACTATAACGCTCTGATCATAGTCAGACCAACATTGCTACGACCCGTATTCGCACCGACAC,-0.0689 ± 0.64,-1.62 ± 0.43
ACATTTGTTCATACAACCATAAAATGATAATTACACCCATAAATTCATCATTATCACACCCAATTTAACTATAACGCTCTGATCATAGTCAGACCAACATTGCTACGACCCGTATTCGCACCGACAC,-0.334 ± 0.16,-2.35 ± 0.22
ACATTTGTTCATACAACCATAAAATGATAATTACACCCATAAATTCATCATTATCACCCCCAATTTAACTATAACGCTCTGATCATAGTCAGACCAACATTGCTACGACCCGTATTCGCACCGACAC,0.174 ± 0.27,-1.97 ± 0.36
ACATTTGTTCATACAACCATAAAATGATAATTACACCCATAAATTGATAATTATCACCCCCAATTTAACTATAACGCTCTGATCATAGTCAGACCAACATTGCTACGACCCGTATTCGCACCGACAC,0.97 ± 0.12,-0.912 ± 0.46
ACATTTGTTCATACAACCATAAAATGATAATTACACCCATAAATTGATCATTATCACACCCAATTTAACTATAACGCTCTGATCATAGTCAGACCAACATTGCTACGACCCGTATTCGCACCGACAC,0.604 ± 0.17,-1.45 ± 0.36
ACATTTGTTCATACAACCATAAAATGATAATTACACCCATAAATTGATCATTATCACCCCCAATTTAACTATAACGCTCTGATCATAGTCAGACCAACATTGCTACGACCCGTATTCGCACCGACAC,0.514 ± 0.2,-1.59 ± 0.39

Sequence,relative integration efficiency (log2) [1],relative integration efficiency (log2) [2]
ACATTTGTTCATACAACCATAAAATGATAATTACCACCCATAAATTGATAATTATCACACCCATTTAACTATAACGCTCTGATCATAGTCAGACCAACATTGCTACGACCCGTATTCGCACCGACAC,-0.231 ± 0.23,-1.38 ± 0.23
ACATTTGTTCATACAACCATAAAATGATAATTACCACCCATACATTGATAATTATCACACCCATTTAACTATAACGCTCTGATCATAGTCAGACCAACATTGCTACGACCCGTATTCGCACCGACAC,-2.29 ± 0.1,-3.31 ± 0.39
ACATTTGTTCATACAACCATAAAATGATAATTACCACCCCTAAATTGATAATTATCACACCCATTTAACTATAACGCTCTGATCATAGTCAGACCAACATTGCTACGACCCGTATTCGCACCGACAC,-2.87 ± 0.85,-4.21 ± 0.08
ACATTTGTTCATACAACCATAAAATGATAATTACCACCCCTACATTGATAATTATCACACCCATTTAACTATAACGCTCTGATCATAGTCAGACCAACATTGCTACGACCCGTATTCGCACCGACAC,-3.25 ± 0.45,-4.944 ± 0.019
ACATTTGTTCATACAACCATAAAATGATAATTCACCCATAAATTGATAATTATCACACCCCAATTTAACTATAACGCTCTGATCATAGTCAGACCAACATTGCTACGACCCGTATTCGCACCGACAC,-0.502 ± 0.27,-2.26 ± 0.18
ACATTTGTTCATACAACCATAAAATGATAATTCACCCATCAATTGATAATTATCACACCCCAATTTAACTATAACGCTCTGATCATAGTCAGACCAACATTGCTACGACCCGTATTCGCACCGACAC,-2.51 ± 0.15,-4.48 ± 0.28
ACATTTGTTCATACAACCCTAAAATGATAATTACACCCATAAATGGATAATTATCACACCCAATTTAACTATAACGCTCTGATCATAGTCAGACCAACATTGCTACGACCCGTATTCGCACCGACAC,-2.78 ± 0.54,-3.9 ± 0.37
ACATTTGTTCATACAACCCTAAAATGATAATTACACCCATAAATGGATAATTATCACCCCCAATTTAACTATAACGCTCTGATCATAGTCAGACCAACATTGCTACGACCCGTATTCGCACCGACAC,-2.74 ± 0.46,-3.89 ± 0.38
ACATTTGTTCATACAACCCTAAAATGATAATTACACCCATAAATGGATCATTATCACACCCAATTTAACTATAACGCTCTGATCATAGTCAGACCAACATTGCTACGACCCGTATTCGCACCGACAC,-3.19 ± 0.38,-5 ± 0.2
ACATTTGTTCATACAACCCTAAAATGATAATTACACCCATAAATGGATCATTATCACCCCCAATTTAACTATAACGCTCTGATCATAGTCAGACCAACATTGCTACGACCCGTATTCGCACCGACAC,-3.98 ± 0.81,-4.59 ± 0.14
ACATTTGTTCATACAACCCTAAAATGATAATTACACCCATAAATTCATAATTATCACACCCAATTTAACTATAACGCTCTGATCATAGTCAGACCAACATTGCTACGACCCGTATTCGCACCGACAC,-2.644 ± 0.026,-5.31 ± 0.95
ACATTTGTTCATACAACCCTAAAATGATAATTACACCCATAAATTCATCATTATCACACCCAATTTAACTATAACGCTCTGATCATAGTCAGACCAACATTGCTACGACCCGTATTCGCACCGACAC,-3.3 ± 0.36,-5.84 ± 0.57
ACATTTGTTCATACAACCCTAAAATGATAATTACACCCATAAATTCATCATTATCACCCCCAATTTAACTATAACGCTCTGATCATAGTCAGACCAACATTGCTACGACCCGTATTCGCACCGACAC,-3.65 ± 0.85,-5.29 ± 0.22
ACATTTGTTCATACAACCCTAAAATGATAATTACACCCATAAATTGATAATTATCACACCCAATTTAACTATAACGCTCTGATCATAGTCAGACCAACATTGCTACGACCCGTATTCGCACCGACAC,-1.03 ± 0.5,-2.24 ± 0.22
ACATTTGTTCATACAACCCTAAAATGATAATTACACCCATAAATTGATAATTATCACCCCCAATTTAACTATAACGCTCTGATCATAGTCAGACCAACATTGCTACGACCCGTATTCGCACCGACAC,-0.953 ± 0.35,-2.74 ± 0.42
ACATTTGTTCATACAACCCTAAAATGATAATTACACCCATAAATTGATCATTATCACACCCAATTTAACTATAACGCTCTGATCATAGTCAGACCAACATTGCTACGACCCGTATTCGCACCGACAC,-1.36 ± 0.72,-3.41 ± 0.23
ACATTTGTTCATACAACCCTAAAATGATAATTACACCCATAAATTGATCATTATCACCCCCAATTTAACTATAACGCTCTGATCATAGTCAGACCAACATTGCTACGACCCGTATTCGCACCGACAC,-0.724 ± 0.35,-2.63 ± 0.59
